According to PMC8526623, “PHF3 regulates neuronal gene expression through the Pol II CTD reader domain SPOC” (Nature Communications, 2021):
Square brackets hold non-standard residues; d marks the D form. Ends that are not written are not given here. pS = N[C@@H](COP(=O)(O)O)C(=O)O; FAM = 5,6-carboxyfluorescein

Legend:
[1] = biological target: 2xpS5 CTD diheptapeptide, FAM-labeled; assay: fluorescence polarisation; fluorescence anisotropy; 10 nM FAM-labeled CTD peptide titrated with SPOC protein; 20 °C, 25 mM Tris-Cl pH 8, 25 mM NaCl, 1 mM DTT; one site saturation with non-specific binding model
[2] = biological target: 2xpS7 CTD diheptapeptide, FAM-labeled; assay: as above
[3] = biological target: 2xpS2pS5 CTD diheptapeptide, Atto-488 labeled; assay: fluorescence correlation spectroscopy (FCS); 15 nM Atto-488 labeled peptide with 40-0.2 µM SPOC, 20 °C; molar masses from diffusion times
[4] = biological target: 2xpS2 CTD diheptapeptide, Atto-488 labeled; assay: as above
[5] = biological target: T1, 2xpS2 CTD diheptapeptide, FAM-labeled; assay: fluorescence polarisation; fluorescence anisotropy; 10 nM FAM-labeled CTD peptide titrated with SPOC protein; 20 °C, 25 mM Tris-Cl pH 8, 25 mM NaCl, 1 mM DTT; one site saturation with non-specific binding model
T1 construct: CTD diheptapeptide: two heptarepeats (Y1S2P3T4S5P6S7) of the C-terminal domain of RPB1, the largest Pol II subunit; source: synthetic peptide (Clonestar)
T1 peptide: {FAM}-Y[pS]PTSPSY[pS]PTSPS

[6] = biological target: T2, 2xpS2pS5 CTD diheptapeptide, FAM-labeled; assay: as above
T2 construct: CTD diheptapeptide: two heptarepeats (Y1S2P3T4S5P6S7) of the C-terminal domain of RPB1, the largest Pol II subunit; source: synthetic peptide (Clonestar)
T2 peptide: {FAM}-Y[pS]PT[pS]PSY[pS]PT[pS]PS

[7] = biological target: T3, 2xpS2pS7 CTD diheptapeptide, FAM-labeled; assay: as above
T3 construct: CTD diheptapeptide: two heptarepeats (Y1S2P3T4S5P6S7) of the C-terminal domain of RPB1, the largest Pol II subunit; source: synthetic peptide (Clonestar)
T3 peptide: {FAM}-Y[pS]PTSP[pS]Y[pS]PTSP[pS]

[8] = biological target: T4, PHF3 SPOC domain (1199-1356aa), bacterially expressed (human, UniProt Q92576 1199-1356); assay: FP; 100 mM NaCl
T4 chain: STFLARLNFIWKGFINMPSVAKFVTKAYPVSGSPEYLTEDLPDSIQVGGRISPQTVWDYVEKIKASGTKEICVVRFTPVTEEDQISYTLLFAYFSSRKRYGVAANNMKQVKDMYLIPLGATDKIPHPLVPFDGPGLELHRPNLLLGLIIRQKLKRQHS

[9] = biological target: T5, PHF3 SPOC R1248A mutant (human, UniProt Q92576 1199-1356, R1248A); assay: FP; 25 mM NaCl
T5 sequence: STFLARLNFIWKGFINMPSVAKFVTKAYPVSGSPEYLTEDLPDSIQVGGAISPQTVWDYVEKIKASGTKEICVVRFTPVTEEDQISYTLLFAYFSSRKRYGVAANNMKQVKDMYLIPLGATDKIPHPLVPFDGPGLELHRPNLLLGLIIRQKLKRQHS

PHF3 SPOC domain (1199-1356aa), bacterially expressed (from UniProt Q92576 1199-1356) (domain or fragment)
Kd [1]: 20 µM | Kd [2]: 26 µM | stoichiometry N [3]: 1 | stoichiometry N [4]: 1 | Kd [5]: 1.6 µM | Kd [6]: 4.8 µM | Kd [7]: 0.8 µM

{FAM}-Y[pS]PTSPSY[pS]PTSPS [2xpS2 CTD diheptapeptide, FAM-labeled]
Kd [8]: 1.4 µM

{FAM}-YSPT[pS]PSYSPT[pS]PS [2xpS5 CTD diheptapeptide, FAM-labeled]
Kd [9]: 22.3 µM

{FAM}-Y[pS]PT[pS]PSY[pS]PT[pS]PS [2xpS2pS5 CTD diheptapeptide, FAM-labeled]
Kd [9]: 48.3 µM

B1: PHF3 SPOC R1248A mutant (domain or fragment, human, UniProt Q92576 1199-1356, looked up)
chain: STFLARLNFIWKGFINMPSVAKFVTKAYPVSGSPEYLTEDLPDSIQVGGAISPQTVWDYVEKIKASGTKEICVVRFTPVTEEDQISYTLLFAYFSSRKRYGVAANNMKQVKDMYLIPLGATDKIPHPLVPFDGPGLELHRPNLLLGLIIRQKLKRQHS
notes: Expression, purification and tag cleavage are told only for SPOC in general; source: E. coli Rosetta2 (DE3), purified (told for SPOC); not shown: His6, N-terminal, cleaved
fold reduction of binding against PHF3 SPOC WT ([5]; both partners purified): > 10 fold | fold reduction of binding against PHF3 SPOC WT ([6]; both partners purified): > 10 fold | fold reduction of binding against PHF3 SPOC WT ([7]; both partners purified): > 10 fold
